From patent publication WO2020135415A1 (dated 2020) come the findings set out here.

For one assay, the target named is PD-L1 expressed by DC. As to the kind of experiment: cell-based or functional assay.
A further assay concerns the target T1, human PD-L1 protein (human, UniProt Q9NZQ7 19-238, limits assumed).
T1 construct: also called hPD-L1; huPD-L1
Description: binding to human PD-L1 protein; method not stated.

T1 sequence (Q9NZQ7 19-238 limits assumed): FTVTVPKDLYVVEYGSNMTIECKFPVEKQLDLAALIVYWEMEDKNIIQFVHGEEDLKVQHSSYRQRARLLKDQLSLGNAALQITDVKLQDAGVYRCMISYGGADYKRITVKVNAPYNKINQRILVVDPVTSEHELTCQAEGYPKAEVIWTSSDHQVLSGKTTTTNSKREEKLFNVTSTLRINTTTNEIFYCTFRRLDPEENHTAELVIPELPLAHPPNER
Sequence of PD-L1 expressed by DC (Q9NZQ7 whole entry): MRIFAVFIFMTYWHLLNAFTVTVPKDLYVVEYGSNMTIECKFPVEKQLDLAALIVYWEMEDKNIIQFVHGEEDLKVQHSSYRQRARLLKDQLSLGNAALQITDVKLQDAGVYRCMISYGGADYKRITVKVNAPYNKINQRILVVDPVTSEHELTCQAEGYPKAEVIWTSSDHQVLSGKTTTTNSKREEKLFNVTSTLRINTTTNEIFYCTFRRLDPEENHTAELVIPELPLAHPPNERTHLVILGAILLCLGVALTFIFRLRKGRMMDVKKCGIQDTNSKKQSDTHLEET

B1: hu5G11-hIgG1 (antibody, V domains shown)
VH: QITLKESGPTLVKPTQTLTLTCTVSGFSLSTYGVHWIRQPPGKALEWLGVIWRGVTTDYNAAFMSRLTITKDNSKNQVVLTMNNMDPVDTATYYCARLGFYAMDYWGQGTLVTVSS
VL: DIQMTQSPSSLSASVGDRVTITCKASQSVSNDVAWYQQKPGKAPKLLIYYAANRYTGVPDRFSGSGYGTDFTFTISSLQPEDIATYFCQQDYTSPYTFGQGTKLEIKR
Turning to B1, the “secretion of IFN-γ in MLR of CD4+:DC cells, EC50” value in the assay with PD-L1 expressed by DC was 0.035 µg/mL. In the assay with human PD-L1 protein, the EC50 – broadly, the concentration that produces a half-maximal response – is 0.0213 µg/mL.
